Laboratory results reported in US20140087995A1 (published 2014).
Numbered stars: 1 amine (or outer) side, 2 acyl side, 3 side chain; on linkers, the order of the positions; unused ones are H or OH. Bridge positions count the residues as written; N and C are the ends. * marks the point of attachment. C20 diacid = O=C(O)CCCCCCCCCCCCCCCCCCC(=O)*; γGlu = O=C(O)[C@H](CCC(=O)[*:2])N[*:1]

T1: human amylin receptor (amylin 3(a) receptor: human calcitonin receptor plus RAMP-3) (human, UniProt P30988 25-474; O60896 24-148, limits assumed)
T1 construct: whole, on cells; the functional assay (Assay IIa) used the whole cells; also called hAmylin-R; hAmylinR
T1 sequence (looked up) 1: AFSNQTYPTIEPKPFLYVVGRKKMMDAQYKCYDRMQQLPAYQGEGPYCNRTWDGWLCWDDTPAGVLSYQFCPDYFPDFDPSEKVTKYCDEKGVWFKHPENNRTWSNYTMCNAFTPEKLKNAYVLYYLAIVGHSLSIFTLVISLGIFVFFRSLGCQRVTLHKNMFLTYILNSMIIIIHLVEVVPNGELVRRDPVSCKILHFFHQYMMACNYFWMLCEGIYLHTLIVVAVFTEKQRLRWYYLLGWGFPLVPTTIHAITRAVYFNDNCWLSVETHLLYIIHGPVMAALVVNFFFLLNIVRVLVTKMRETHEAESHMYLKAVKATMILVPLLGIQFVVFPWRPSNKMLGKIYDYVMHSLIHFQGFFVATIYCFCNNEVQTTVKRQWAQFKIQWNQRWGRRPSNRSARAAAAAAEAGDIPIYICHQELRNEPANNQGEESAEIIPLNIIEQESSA
T1 sequence (looked up) 2: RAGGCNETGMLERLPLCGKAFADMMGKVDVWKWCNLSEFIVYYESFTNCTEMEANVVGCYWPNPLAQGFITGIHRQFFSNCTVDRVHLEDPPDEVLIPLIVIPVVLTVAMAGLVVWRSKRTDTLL

T2: human calcitonin receptor (human, UniProt P30988 25-474)
T2 sequence (looked up): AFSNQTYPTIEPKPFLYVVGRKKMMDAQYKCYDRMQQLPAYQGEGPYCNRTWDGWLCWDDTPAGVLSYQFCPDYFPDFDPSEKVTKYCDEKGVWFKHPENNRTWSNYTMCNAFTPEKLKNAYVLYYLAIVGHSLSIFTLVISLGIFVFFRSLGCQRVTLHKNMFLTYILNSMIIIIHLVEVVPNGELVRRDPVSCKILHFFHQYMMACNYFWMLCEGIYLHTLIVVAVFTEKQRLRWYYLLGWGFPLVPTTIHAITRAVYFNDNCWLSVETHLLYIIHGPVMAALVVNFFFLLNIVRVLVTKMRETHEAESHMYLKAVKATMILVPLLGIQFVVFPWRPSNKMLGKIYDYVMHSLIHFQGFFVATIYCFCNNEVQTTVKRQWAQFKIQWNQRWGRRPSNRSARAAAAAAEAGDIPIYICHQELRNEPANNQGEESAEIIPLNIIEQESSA


How the values were obtained:
[1] = target: T1, human amylin receptor (amylin 3(a) …); experiment: SPA competition binding, membranes of Amylin 3(a)/CRE-luc BHK cells, displacement of 125I-rat amylin (Assay V)
Procedure: The binding assay was performed using scintillation proximity assay (SPA) beads (RPNQ0001) from PerkinElmer and cell membranes from the Amylin 3(a)/CRE-luc cells (as described in Assay (II)) were used. Membranes were prepared in the following way; the cells were rinsed with PBS and incubated with Versene for approximately 5 min before harvesting. The cells were flushed with PBS and the cell-suspension was centrifuged for 5 min at 1000 rpm. Cells were homogenized (ultrathurrax) in a buffer containing 20 mM Na-HEPES and 10 mM EDTA (pH 7.4) and centrifuged at 20.000 rpm for 15 min. The resulting pellet was resuspended, homogenized and centrifuged (20.000 rpm, 15 min) in a buffer containing 20 mM Na-HEPES and 0.1 mM EDTA (pH 7.4, buffer 2). The resulting pellet was resuspended in buffer 2 and protein concentration was measured (BCA protein Assay, Pierce). The homogenate was kept cold during the whole procedure. The membranes were kept at −80° C. until use. The assay was performed in a 384 well Optiplate (PerkinElmer) in a total volume of 40 ul. Membranes were mixed with SPA beads. Final concentration of membranes 35 ng/μL final and SPA beads was 0.05 mg/well. Test-compounds were dissolved in DMSO and further diluted in assay buffer (50 mM Hepes, pH 7.4, 1 mM CaCl2, 5 mM MgCl₂, 0.1% OA and 0.02% Tween20). […] The final mixture was incubated with shaking at 400 rpm for 120 min at 25° C. prior to centrifugation (1500 rpm, 10 min). Samples were analyzed on TopCounter™ (Packard). The IC₅₀ was calculated using (one site binding competition analysis) GraphPad Prism5 as a measure of receptor affinity.

[2] = target: T1, human amylin receptor (amylin 3(a) …); experiment: cell-based or functional assay
[3] = target: T2, human calcitonin receptor; experiment: cell-based or functional assay

Binder | IC50 [1] [nM] | hAmylin-R funct. EC50 [2] [nM] | Ratio hCT/hAmylin funct. (hCTR EC50 against hAmylin-R EC50) [3] | hCTR funct. EC50 [3] [nM]
{C20 diacid-γGlu}-KCNTATCATQRLAEFLRHSSPNFGAIPSSTNVGSDTP-NH2 (disulfide 2-7; SMILES CC[C@H](C)[C@H](NC(=O)[C@H](C)NC(=O)CNC(=O)[C@H](Cc1ccccc1)NC(=O)[C@H](CC(N)=O)NC(=O)[C@@H]1CCCN1C(=O)[C@H](CO)NC(=O)[C@H](CO)NC(=O)[C@H](Cc1c[nH]cn1)NC(=O)[C@H](CCCNC(=N)N)NC(=O)[C@H](CC(C)C)NC(=O)[C@H](Cc1ccccc1)NC(=O)[C@H](CCC(=O)O)NC(=O)[C@H](C)NC(=O)[C@H](CC(C)C)NC(=O)[C@H](CCCNC(=N)N)NC(=O)[C@H](CCC(N)=O)NC(=O)[C@@H](NC(=O)[C@H](C)NC(=O)[C@@H]1CSSC[C@H](NC(=O)[C@H](CCCCN)NC(=O)CC[C@H](NC(=O)CCCCCCCCCCCCCCCCCCC(=O)O)C(=O)O)C(=O)N[C@@H](CC(N)=O)C(=O)N[C@@H]([C@@H](C)O)C(=O)N[C@@H](C)C(=O)N[C@@H]([C@@H](C)O)C(=O)N1)[C@@H](C)O)C(=O)N1CCC[C@H]1C(=O)N[C@@H](CO)C(=O)N[C@@H](CO)C(=O)N[C@H](C(=O)N[C@@H](CC(N)=O)C(=O)N[C@H](C(=O)NCC(=O)N[C@@H](CO)C(=O)N[C@@H](CC(=O)O)C(=O)N[C@H](C(=O)N1CCC[C@H]1C(N)=O)[C@@H](C)O)C(C)C)[C@@H](C)O, also called compound 11) | 0.105 | 0.12 | 0.9 | 0.112
{C20 diacid-γGlu}-KCNTATCATQRLAEFLRHSSPNFGAIPSSTNVGHNTY-NH2 (disulfide 2-7; SMILES CC[C@H](C)[C@H](NC(=O)[C@H](C)NC(=O)CNC(=O)[C@H](Cc1ccccc1)NC(=O)[C@H](CC(N)=O)NC(=O)[C@@H]1CCCN1C(=O)[C@H](CO)NC(=O)[C@H](CO)NC(=O)[C@H](Cc1c[nH]cn1)NC(=O)[C@H](CCCNC(=N)N)NC(=O)[C@H](CC(C)C)NC(=O)[C@H](Cc1ccccc1)NC(=O)[C@H](CCC(=O)O)NC(=O)[C@H](C)NC(=O)[C@H](CC(C)C)NC(=O)[C@H](CCCNC(=N)N)NC(=O)[C@H](CCC(N)=O)NC(=O)[C@@H](NC(=O)[C@H](C)NC(=O)[C@@H]1CSSC[C@H](NC(=O)[C@H](CCCCN)NC(=O)CC[C@H](NC(=O)CCCCCCCCCCCCCCCCCCC(=O)O)C(=O)O)C(=O)N[C@@H](CC(N)=O)C(=O)N[C@@H]([C@@H](C)O)C(=O)N[C@@H](C)C(=O)N[C@@H]([C@@H](C)O)C(=O)N1)[C@@H](C)O)C(=O)N1CCC[C@H]1C(=O)N[C@@H](CO)C(=O)N[C@@H](CO)C(=O)N[C@H](C(=O)N[C@@H](CC(N)=O)C(=O)N[C@H](C(=O)NCC(=O)N[C@@H](Cc1c[nH]cn1)C(=O)N[C@@H](CC(N)=O)C(=O)N[C@H](C(=O)N[C@@H](Cc1ccc(O)cc1)C(N)=O)[C@@H](C)O)C(C)C)[C@@H](C)O, also called compound 17) | 0.878 | 0.268 | 8.8 | 2.35

Continued, values first:

IC50 [1] [nM] | hAmylin-R funct. EC50 [2] [nM] | Ratio hCT/hAmylin funct. (hCTR EC50 against hAmylin-R EC50) [3] | hCTR funct. EC50 [3] [nM] | Binder
0.577 | 0.099 | 8.7 | 0.857 | {C20 diacid-γGlu}-KCNTATCATQRLANFLRHSSPNFGAIPSSTNVGPETY-NH2 (disulfide 2-7; SMILES CC[C@H](C)[C@H](NC(=O)[C@H](C)NC(=O)CNC(=O)[C@H](Cc1ccccc1)NC(=O)[C@H](CC(N)=O)NC(=O)[C@@H]1CCCN1C(=O)[C@H](CO)NC(=O)[C@H](CO)NC(=O)[C@H](Cc1c[nH]cn1)NC(=O)[C@H](CCCNC(=N)N)NC(=O)[C@H](CC(C)C)NC(=O)[C@H](Cc1ccccc1)NC(=O)[C@H](CC(N)=O)NC(=O)[C@H](C)NC(=O)[C@H](CC(C)C)NC(=O)[C@H](CCCNC(=N)N)NC(=O)[C@H](CCC(N)=O)NC(=O)[C@@H](NC(=O)[C@H](C)NC(=O)[C@@H]1CSSC[C@H](NC(=O)[C@H](CCCCN)NC(=O)CC[C@H](NC(=O)CCCCCCCCCCCCCCCCCCC(=O)O)C(=O)O)C(=O)N[C@@H](CC(N)=O)C(=O)N[C@@H]([C@@H](C)O)C(=O)N[C@@H](C)C(=O)N[C@@H]([C@@H](C)O)C(=O)N1)[C@@H](C)O)C(=O)N1CCC[C@H]1C(=O)N[C@@H](CO)C(=O)N[C@@H](CO)C(=O)N[C@H](C(=O)N[C@@H](CC(N)=O)C(=O)N[C@H](C(=O)NCC(=O)N1CCC[C@H]1C(=O)N[C@@H](CCC(=O)O)C(=O)N[C@H](C(=O)N[C@@H](Cc1ccc(O)cc1)C(N)=O)[C@@H](C)O)C(C)C)[C@@H](C)O, also called compound 29)
0.554 | 0.154 | 4.8 | 0.742 | {C20 diacid-γGlu}-KCNTATCATQRLAEFLRHSSPNFGAIPSSTNVGSHTY-NH2 (disulfide 2-7; SMILES CC[C@H](C)[C@H](NC(=O)[C@H](C)NC(=O)CNC(=O)[C@H](Cc1ccccc1)NC(=O)[C@H](CC(N)=O)NC(=O)[C@@H]1CCCN1C(=O)[C@H](CO)NC(=O)[C@H](CO)NC(=O)[C@H](Cc1c[nH]cn1)NC(=O)[C@H](CCCNC(=N)N)NC(=O)[C@H](CC(C)C)NC(=O)[C@H](Cc1ccccc1)NC(=O)[C@H](CCC(=O)O)NC(=O)[C@H](C)NC(=O)[C@H](CC(C)C)NC(=O)[C@H](CCCNC(=N)N)NC(=O)[C@H](CCC(N)=O)NC(=O)[C@@H](NC(=O)[C@H](C)NC(=O)[C@@H]1CSSC[C@H](NC(=O)[C@H](CCCCN)NC(=O)CC[C@H](NC(=O)CCCCCCCCCCCCCCCCCCC(=O)O)C(=O)O)C(=O)N[C@@H](CC(N)=O)C(=O)N[C@@H]([C@@H](C)O)C(=O)N[C@@H](C)C(=O)N[C@@H]([C@@H](C)O)C(=O)N1)[C@@H](C)O)C(=O)N1CCC[C@H]1C(=O)N[C@@H](CO)C(=O)N[C@@H](CO)C(=O)N[C@H](C(=O)N[C@@H](CC(N)=O)C(=O)N[C@H](C(=O)NCC(=O)N[C@@H](CO)C(=O)N[C@@H](Cc1c[nH]cn1)C(=O)N[C@H](C(=O)N[C@@H](Cc1ccc(O)cc1)C(N)=O)[C@@H](C)O)C(C)C)[C@@H](C)O, also called compound 18)
0.082 | 0.072 | 1 | 0.07 | {C20 diacid-γGlu}-KCNTATCATQRLADFLRHSSPNFGAIPSSTNVGSNTP-NH2 (disulfide 2-7; SMILES CC[C@H](C)[C@H](NC(=O)[C@H](C)NC(=O)CNC(=O)[C@H](Cc1ccccc1)NC(=O)[C@H](CC(N)=O)NC(=O)[C@@H]1CCCN1C(=O)[C@H](CO)NC(=O)[C@H](CO)NC(=O)[C@H](Cc1c[nH]cn1)NC(=O)[C@H](CCCNC(=N)N)NC(=O)[C@H](CC(C)C)NC(=O)[C@H](Cc1ccccc1)NC(=O)[C@H](CC(=O)O)NC(=O)[C@H](C)NC(=O)[C@H](CC(C)C)NC(=O)[C@H](CCCNC(=N)N)NC(=O)[C@H](CCC(N)=O)NC(=O)[C@@H](NC(=O)[C@H](C)NC(=O)[C@@H]1CSSC[C@H](NC(=O)[C@H](CCCCN)NC(=O)CC[C@H](NC(=O)CCCCCCCCCCCCCCCCCCC(=O)O)C(=O)O)C(=O)N[C@@H](CC(N)=O)C(=O)N[C@@H]([C@@H](C)O)C(=O)N[C@@H](C)C(=O)N[C@@H]([C@@H](C)O)C(=O)N1)[C@@H](C)O)C(=O)N1CCC[C@H]1C(=O)N[C@@H](CO)C(=O)N[C@@H](CO)C(=O)N[C@H](C(=O)N[C@@H](CC(N)=O)C(=O)N[C@H](C(=O)NCC(=O)N[C@@H](CO)C(=O)N[C@@H](CC(N)=O)C(=O)N[C@H](C(=O)N1CCC[C@H]1C(N)=O)[C@@H](C)O)C(C)C)[C@@H](C)O, also called compound 10)
